Here are results for 10 variants from PMC11746154.

B1: LexA-Rec102 [S. cerevisiae] / Gal4AD-Spo11 [S. cerevisiae] (parent)
chain 1: MALEGLRKKYKTRQELVKALTPKRRSIHLNSNGHSNGTPCSNADVLAHIKHFLSLAANSLEQHQQPISIVFQNKKKKGDTSSPDIHTTLDFPLNGPHLCTHQFKLKRCAILLNLLKVVMEKLPLGKNTTVRDIFYSNVELFQRQANVVQWLDVIRFNFKLSPRKSLNIIPAQKGLVYSPFPIDIYDNILTCENEPKMQKQTIFPGKPCLIPFFQDDAVIKLGTTSMCNIVIVEKEAVFTKLVNNYHKLSTNTMLITGKGFPDFLTRLFLKKLEQYCSKLISDCSIFTDADPYGISIALNYTHSNERNAYICTMANYKGIRITQVLAQNNEVHNKSIQLLSLNQRDYSLAKNLIASLTANSWDIATSPLKNVIIECQREIFFQKKAEMNEIDARIFEYK
chain 2: MARDITFLTVFLESCGAVNNDEAGKLLSAWTSTVRIEGPESTDSNSLYIPLLPPGMLKIKLNFKMNDRLVTEEQELFTKLREIVGSSIRFWEEQLFYQVQDVSTIENHVILSLKCTILTDAQISTFISKPRELHTHAKGYPEIYYLSELSTTVNFFSKEGNYVEISQVIPHFNEYFSSLIVSQLEFEYPMVFSMISRLRLKWQQSSLAPISYALTSNSVLLPIMLNMIAQDKSSTTAYQILCRRRGPPIQNFQIFSLPAVTYNK

In one assay the parent is B1. In words: Y2H quantitative β-galactosidase assay. To be noted: with Gal4AD-Spo11 [S. cerevisiae]; parent: 1; read off a plot.
chain 2 MARDITFLTVFLESCGAVNNDEAGKLLSAWTSTVRIEGPESTDSNSLYIPLLPPGMLKIKLNFKMNDRLVTEEQELFTKLREIVGSSIRFWEEQLFYQVQDVSTIENHVILSLKCTILTDAQISTFISKPRELHTHAKGYPEIYYLSELSTTVNFFSKEGNYVEISQVIPHFNEYFSSLIVSQLEFEYPMVFSMISRLRLKWQQSSLAPISYALTSNSVLLPIMLNMIAQDKASTTAYQILCRRRGPPIQNFQIFSLPAVTYNK [chain 2 S233A]: the response (normalized β-gal units) amounted to 0.12.

Regarding chain 2 MARDITFLTVFLESCGAVNNDEAGKLLSAWTSTVRIEGPESTDSNSLYIPLLPPGMLKIKLNFKMNDRLVTEEQELFTKLREIVGSSIRFWEEQLFYQVQDVSTIENHVILSLKCTILTDAQISTFISKPRELHTHAKGYPEIYYLSELSTTVNFFSKEGNYVEISQVIPHFNEYFSSLIVSQLEFEYPMVFSMISRLRLKWQQSSLAPISYALTSNSVLLPIMLNMIAQDKSSTTAYAILCRRRGPPIQNFQIFSLPAVTYNK [chain 2 Q239A], the response (normalized β-gal units) worked out at 0.27. With chain 2 MARDITFLTVFLESCGAVNNDEAGKLLSAWTSTVRIEGPESTDSNSLYIPLLPPGMLKIKLNFKMNDRLVTEEQELFTKLREIVGSSIRFWEEQLFYQVQDVSTIENHVILSLKCTILTDAQISTFISKPRELHTHAKGYPEIYYLSELSTTVNFFSKEGNYVEISQVIPHFNEYFSSLIVSQLEFEYPMVFSMISRLRLKAQQSSLAPISYALTSNSVLLPIMLNMIAQDKSSTTAYQILCRRRGPPIQNFQIFSLPAVTYNK [chain 2 W202A], the response (normalized β-gal units) turned out to be 0.1. On the same count and under the same terms, to chain 2 MARDITFLTVFLESCGAVNNDEAGKLLSAWTSTVRIEGPESTDSNSLYIPLLPPGMLKIKLNFKMNDRLVTEEQELFTKLREIVGSSIRFWEEQLFYQVQDVSTIENHVILSLKCTILTDAQISTFISKPRELHTHAKGYPEIYYLSELSTTVNFFSKEGNYVEISQVIPHFNEYFSSLIVSQLEFEYPMVFSMISRARLKWQQSSLAPISYALTSNSVLLPIMLNMIAQDKSSTTAYQILCRRRGPPIQNFQIFSLPAVTYNK [chain 2 L198A] belongs 0.15.

On to chain 2 MARDITFLTVFLESCGAVNNDEAGKLLSAWTSTVRIEGPESTDSNSLYIPLLPPGMLKIKLNFKMNDRLVTEEQELFTKLREIVGSSIRFWEEQLFYQVQDVSTIENHVILSLKCTILTDAQISTFISKPRELHTHAKGYPEIYYLSELSTTVNFFSKEGNYVEISQVIPHFNEYFSSLIVSQLEFEYPMVFSMISRLRLKWQQSSLAPISYALTSNSVLLPIMLNMIAQDKSSTTAYQILCRRRGPPAQNFQIFSLPAVTYNK [chain 2 I249A], for which the response (normalized β-gal units) worked out at 0.9.

In the case of chain 2 MARDITFLTVFLESCGAVNNDEAGKLLSAWTSTVRIEGPESTDSNSLYIPLLPPGMLKIKLNFKMNDRLVTEEQELFTKLREIVGSSIRFWEEQLFYQVQDVSTIENHVILSLKCTILTDAQISTFISKPRELHTHAKGYPEIYYLSELSTTVNFFSKEGNYVEISQVIPHFNEYFSSLIVSQLEFEYPMVFSMISRLALKWQQSSLAPISYALTSNSVLLPIMLNMIAQDKSSTTAYQILCRRRGPPIQNFQIFSLPAVTYNK [chain 2 R199A], the response (normalized β-gal units) was found to be 0.02.

Staying with this assay, now noted: with LexA-Rec102 [S. cerevisiae]; parent: 1; read off a plot.
As for chain 1 MALEGLRKKYKTRQELVKALTPKRRSIHLNSNGHSNGTPCSNADVLAHIKHFLSLAANSLEQHQQPISIVFQNKKKKGDTSSPDIHTTLDFPLNGPHLCTHQAKLKRCAILLNLLKVVMEKLPLGKNTTVRDIFYSNVELFQRQANVVQWLDVIRFNFKLSPRKSLNIIPAQKGLVYSPFPIDIYDNILTCENEPKMQKQTIFPGKPCLIPFFQDDAVIKLGTTSMCNIVIVEKEAVFTKLVNNYHKLSTNTMLITGKGFPDFLTRLFLKKLEQYCSKLISDCSIFTDADPYGISIALNYTHSNERNAYICTMANYKGIRITQVLAQNNEVHNKSIQLLSLNQRDYSLAKNLIASLTANSWDIATSPLKNVIIECQREIFFQKKAEMNEIDARIFEYK [chain 1 F103A], the response (normalized β-gal units) was 0.35. Same read-out and setting: to chain 1 MALEGLRKKYKTRQELVKALTPKRRSIHLNSNGHSNGTPCSNADVLAHIKHFLSLAANSLEQHQQPISIVFQNKKKKGDTSSPDIHTTLDFPLNAPHLCTHQFKLKRCAILLNLLKVVMEKLPLGKNTTVRDIFYSNVELFQRQANVVQWLDVIRFNFKLSPRKSLNIIPAQKGLVYSPFPIDIYDNILTCENEPKMQKQTIFPGKPCLIPFFQDDAVIKLGTTSMCNIVIVEKEAVFTKLVNNYHKLSTNTMLITGKGFPDFLTRLFLKKLEQYCSKLISDCSIFTDADPYGISIALNYTHSNERNAYICTMANYKGIRITQVLAQNNEVHNKSIQLLSLNQRDYSLAKNLIASLTANSWDIATSPLKNVIIECQREIFFQKKAEMNEIDARIFEYK [chain 1 G95A] belongs 0.17; to chain 1 MALEGLRKKYKTRQELVKALTPKRRSIHLNSNGHSNGTPCSNADVLAHIKHFLSLAANSLEQHQQPISIVFQNKKKKGDTSSPDIHTTLDAPLNGPHLCTHQFKLKRCAILLNLLKVVMEKLPLGKNTTVRDIFYSNVELFQRQANVVQWLDVIRFNFKLSPRKSLNIIPAQKGLVYSPFPIDIYDNILTCENEPKMQKQTIFPGKPCLIPFFQDDAVIKLGTTSMCNIVIVEKEAVFTKLVNNYHKLSTNTMLITGKGFPDFLTRLFLKKLEQYCSKLISDCSIFTDADPYGISIALNYTHSNERNAYICTMANYKGIRITQVLAQNNEVHNKSIQLLSLNQRDYSLAKNLIASLTANSWDIATSPLKNVIIECQREIFFQKKAEMNEIDARIFEYK [chain 1 F91A], 0.3. On the same count and under the same terms, then chain 1 MAAEGLRKKYKTRQELVKALTPKRRSIHLNSNGHSNGTPCSNADVLAHIKHFLSLAANSLEQHQQPISIVFQNKKKKGDTSSPDIHTTLDFPLNGPHLCTHQFKLKRCAILLNLLKVVMEKLPLGKNTTVRDIFYSNVELFQRQANVVQWLDVIRFNFKLSPRKSLNIIPAQKGLVYSPFPIDIYDNILTCENEPKMQKQTIFPGKPCLIPFFQDDAVIKLGTTSMCNIVIVEKEAVFTKLVNNYHKLSTNTMLITGKGFPDFLTRLFLKKLEQYCSKLISDCSIFTDADPYGISIALNYTHSNERNAYICTMANYKGIRITQVLAQNNEVHNKSIQLLSLNQRDYSLAKNLIASLTANSWDIATSPLKNVIIECQREIFFQKKAEMNEIDARIFEYK [chain 1 L3A], with 0.27.
